Measured values taken from patent publication US20050239169.

T1: SELADIN-1
T1 chain: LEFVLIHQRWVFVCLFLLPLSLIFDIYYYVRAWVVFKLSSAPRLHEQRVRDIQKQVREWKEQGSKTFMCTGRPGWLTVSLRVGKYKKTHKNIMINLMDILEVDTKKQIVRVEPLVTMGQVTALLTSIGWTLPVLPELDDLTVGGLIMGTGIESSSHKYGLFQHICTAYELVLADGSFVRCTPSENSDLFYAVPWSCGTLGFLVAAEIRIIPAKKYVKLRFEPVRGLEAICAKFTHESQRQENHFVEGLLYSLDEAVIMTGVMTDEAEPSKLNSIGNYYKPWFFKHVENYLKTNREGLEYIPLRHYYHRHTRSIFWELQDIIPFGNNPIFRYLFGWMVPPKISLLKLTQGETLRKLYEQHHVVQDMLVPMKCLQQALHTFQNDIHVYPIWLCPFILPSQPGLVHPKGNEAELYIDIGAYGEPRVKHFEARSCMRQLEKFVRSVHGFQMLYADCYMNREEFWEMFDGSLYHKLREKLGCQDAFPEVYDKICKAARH


Target: T1, SELADIN-1

| Protein | in vitro cleavage of SELADIN-1 (fragment sizes) |
| --- | --- |
| caspase 3 (protein) SGISLDNSYKMDYPEMGLCIIINNKNFHKSTGMTSRSGTDVDAANLRETFRNLKYEVRNKNDLTREEIVELMRDVSKEDHSKRSSFVCVLLSHGEEGIIFGTNGPVDLKKITNFFRGDRCRSLTGKPKLFIIQACRGTELDCGIETDSGVDDDMACHKIPVEADFLYAYSTAPGYYSWRNSKDGSWFIQSLCAMLKQYADKLEFMHILTRVNRKVATEFESFSFDATFHAKKQIPCIVSMLTKELYFYH | In vitro cleavage of SELADIN-1 by caspase 3 or 6 generated four different SELADIN-1 fragments of approximately 50, 40, 30 and 20 kDa, respectively |
| caspase 6 (protein) AFYKREMFDPAEKYKMDHRRRGIALIFNHERFFWHLTLPERRGTCADRDNLTRRFSDLGFEVKCFNDLKAEELLLKIHEVSTVSHADADCFVCVFLSHGEGNHIYAYDAKIEIQTLTGLFKGDKCHSLVGKPKIFIIQACRGNQHDVPVIPLDVVDNQTEKLDTNITEVDAASVYTLPAGADFLMCYSVAEGYYSHRETVNGSWYIQDLCEMLGKYGSSLEFTELLTLVNRKVSQRRVDFCKDPSAIGKKQVPCFASMLTKKLHFFPKSN | In vitro cleavage of SELADIN-1 by caspase 3 or 6 generated four different SELADIN-1 fragments of approximately 50, 40, 30 and 20 kDa, respectively |
